Test results: PMC11480844

B1: H2-Kb / F5 (parent)
chain 1: GDSVTQTEGLVTLTEGLPVMLNCTYQSTYSPFLFWYVQHLNEAPKLLLKSFTDNKRPEHQGFHATLHKSSSSFHLQKSSAQLSDSALYYCALSPSNMGYKLTFGTGTSLLVDP
chain 2: EAAVTQSPRNKVAVTGGKVTLSCNQTNNHNNMYWYRQDTGHGLRLIHYSYGAGSTEKGDIPDGYKASRPSQENFSLILELATPSQTSVYFCASGDASEQYFGPGTRLTVL
chain 3: not shown
chain 4: IQKTPQIQVYSRHPPENGKPNILNCYVTQFHPPHIEIQMLKNGKKIPKVEMSDMSFSKDWSFYILAHTEFTPTETDTYACRVKHDSMAEPKTVYWDRDM
chain 5: SIINFEKL
B2: H2-Kb / E8 (parent)
chain 1: GDSVTQTEGLVTVTEGLPVKLNCTYQTTYLTIAFFWYVQYLNEAPQVLLKSSTDNKRTEHQGFHATLHKSSSSFHLQKSSAQLSDSALYYCALNTNTGKLTFGDGTVLTVKP
chain 2: EAAVTQSPRNKVAVTGGKVTLSCNQTNNHNNMYWYRQDTGHGLRLIHYSYGAGSTEKGDIPDGYKASRPSQENFSLILELATPSQTSVYFCASGDWGAGTGQLYFGEGSKLTVL
chain 3: not shown
chain 4: B1 chain 4
chain 5: SIINFEKL

Variants of: B1
Assay: % of reporter cells activated (NFAT-GFP), raw
Details: with F5; scale: % of reporter cells activated
Note: test concentration or dose not given here.

Variant | ratio to parent
chain 5 F5V | 1.15
chain 5 F5K | 0.247
chain 5 S1M | 0.281
chain 5 S1D | 0.288
chain 5 S1F | 0.262
chain 5 S1E | 0.33
chain 5 S1I | 0.262
chain 5 S1Q | 0.554
chain 5 N4S | 0.303
chain 5 N4Y | 0.307
chain 5 N4M | 0.431
chain 5 N4V | 0.322
chain 5 N4H | 0.36
chain 5 N4F | 0.509
chain 5 N4G | 0.24
chain 5 E6N | 0.296
chain 5 E6Q | 0.288
chain 5 E6D | 0.371
chain 5 E6F | 0.292
chain 5 E6I | 0.21
chain 5 E6H | 0.27
chain 5 K7F | 2.64

Variant | ratio to parent
chain 5 K7Y | 0.423
chain 5 K7E | 0.184
chain 5 K7W | 0.498
chain 5 K7H | 0.61
chain 5 K7Q | 1.38
chain 5 K7C | 0.588
chain 5 K7M | 5.55
chain 5 L8A | 0.195
chain 5 L8P | 0.352
chain 5 L8V | 0.521
chain 5 L8I | 0.858
chain 5 I2R | 0.273
chain 5 I2G | 0.989
chain 5 I2A | 0.603
chain 5 I2D | 0.652
chain 5 I2T | 1.03
chain 5 I2Y | 0.393
chain 5 I2K | 0.397
chain 5 I2N | 0.903
chain 5 I2P | 0.419
chain 5 I2Q | 0.472

Variants of: B2
Assay: % of reporter cells activated (NFAT-GFP), raw
Details: with E8; scale: % of reporter cells activated

Variant | ratio to parent
chain 5 I3P | 0.735
chain 5 I3Q | 0.475
chain 5 I3G | 0.241
chain 5 I3N | 0.231
chain 5 I3Y | 3.36
chain 5 I3T | 0.273
chain 5 I3W | 1.9
chain 5 I3F | 2.52
chain 5 I3C | 0.982
chain 5 I3A | 0.244
chain 5 I3D | 0.0231
chain 5 I3V | 0.61
chain 5 I3H | 1.57
chain 5 I3L | 1.93
chain 5 I3E | 0.331
chain 5 I3M | 1.45
chain 5 I3S | 2.66
chain 5 I3R | 0.605
chain 5 I3K | 0.147
chain 5 I2A | 1.19
chain 5 I2K | 0.571
chain 5 I2G | 0.418
chain 5 I2D | 1.78
chain 5 I2M | 0.834
chain 5 I2L | 2.58

Variant | ratio to parent
chain 5 I2N | 0.771
chain 5 I2H | 0.943
chain 5 I2T | 2.56
chain 5 I2W | 3.66
chain 5 I2F | 0.604
chain 5 I2S | 1.54
chain 5 I2Q | 0.307
chain 5 I2P | 1.66
chain 5 I2E | 0.694
chain 5 I2R | 0.251
chain 5 I2Y | 0.205
chain 5 I2V | 2.6
chain 5 I2C | 1.31
chain 5 S1G | 0.205
chain 5 S1E | 0.252
chain 5 S1I | 0.0565
chain 5 S1L | 0.0264
chain 5 S1M | 0.0169
chain 5 S1K | 0.00805
chain 5 S1C | 0.0291
chain 5 S1P | 0.0215
chain 5 S1A | 0.897
chain 5 S1W | 0.0202
chain 5 S1T | 0.0377
chain 5 S1N | 0.0146

Variant | ratio to parent
chain 5 S1Y | 0.0177
chain 5 S1R | 0.0279
chain 5 S1Q | 0.0368
chain 5 S1H | 0.0497
chain 5 S1F | 0.0608
chain 5 S1V | 0.0822
chain 5 S1D | 1.87
chain 5 F5Y | 1.09
chain 5 F5P | 1.03
chain 5 F5V | 3.19
chain 5 F5T | 0.892
chain 5 F5M | 1.04
chain 5 F5W | 2.35
chain 5 F5N | 1.13
chain 5 F5R | 0.77
chain 5 F5S | 1.09
chain 5 F5Q | 0.682
chain 5 K7Y | 0.121
chain 5 K7T | 0.223
chain 5 K7D | 0.288
chain 5 K7H | 0.14
chain 5 K7S | 0.491
chain 5 K7Q | 0.256
chain 5 K7N | 0.18
chain 5 K7W | 0.235

Variant | ratio to parent
chain 5 K7P | 0.0848
chain 5 K7M | 0.239
chain 5 K7E | 0.415
chain 5 K7I | 0.132
chain 5 K7R | 1.06
chain 5 K7L | 0.119
chain 5 K7F | 0.14
chain 5 K7C | 0.196
chain 5 K7A | 0.522
chain 5 K7G | 0.377
chain 5 K7V | 0.175
chain 5 N4W | 1.86
chain 5 N4G | 0.104
chain 5 N4C | 0.0617
chain 5 N4E | 0.0223
chain 5 N4R | 0.0317
chain 5 N4K | 0.0265
chain 5 N4M | 0.0197
chain 5 N4I | 0.11
chain 5 N4A | 0.402
chain 5 N4Y | 0.0136
chain 5 N4S | 0.0377
chain 5 N4T | 0.394
chain 5 N4V | 0.637
chain 5 N4F | 0.0343

Variant | ratio to parent
chain 5 N4D | 0.0157
chain 5 N4L | 0.0142
chain 5 N4H | 0.0899
chain 5 N4Q | 0.0151
chain 5 N4P | 2.41
chain 5 L8Q | 0.38
chain 5 L8G | 0.949
chain 5 L8R | 0.331
chain 5 L8S | 0.214
chain 5 L8E | 0.264
chain 5 L8T | 0.444
chain 5 L8C | 0.214
chain 5 L8I | 0.998
chain 5 L8D | 0.154
chain 5 L8H | 0.898
chain 5 L8K | 0.228
chain 5 L8Y | 1.23
chain 5 L8F | 0.826
chain 5 L8P | 0.187
chain 5 L8V | 0.473
chain 5 L8N | 0.755
chain 5 L8A | 0.534
chain 5 L8W | 0.344
chain 5 L8M | 0.838
